# T1: APBA1_1, Q02410
# T1 sequence (Q02410 651-752, limits assumed, looked up): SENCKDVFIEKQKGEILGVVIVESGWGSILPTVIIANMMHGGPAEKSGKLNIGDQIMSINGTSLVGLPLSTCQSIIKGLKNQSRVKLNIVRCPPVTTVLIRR
# T2: ARHGAP21, Q5T5U3
# T2 sequence (Q5T5U3 45-169, limits assumed, looked up): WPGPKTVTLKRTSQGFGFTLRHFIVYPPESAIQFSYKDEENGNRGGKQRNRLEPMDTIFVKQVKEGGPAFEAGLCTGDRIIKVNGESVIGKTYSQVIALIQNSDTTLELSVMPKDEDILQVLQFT
# T3: DFNB31_1, Q9P202
# T3 sequence (Q9P202 135-233, limits assumed, looked up): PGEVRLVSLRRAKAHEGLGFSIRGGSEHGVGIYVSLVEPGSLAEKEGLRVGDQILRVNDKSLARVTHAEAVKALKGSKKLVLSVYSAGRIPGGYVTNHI
# T4: DLG3_1, Q92796
# T4 sequence (Q92796 125-227, limits assumed, looked up): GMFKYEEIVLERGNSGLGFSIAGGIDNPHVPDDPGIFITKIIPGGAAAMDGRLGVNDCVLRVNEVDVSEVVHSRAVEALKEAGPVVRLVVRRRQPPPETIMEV
# T5: DLG3_3, Q92796
# T5 sequence (Q92796 374-475, limits assumed, looked up): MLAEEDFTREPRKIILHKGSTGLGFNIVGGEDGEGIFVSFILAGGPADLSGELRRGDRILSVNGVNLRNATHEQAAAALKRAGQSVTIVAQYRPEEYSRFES
# T6: HTRA3, P83110
# T6 sequence (P83110 354-453, limits assumed, looked up): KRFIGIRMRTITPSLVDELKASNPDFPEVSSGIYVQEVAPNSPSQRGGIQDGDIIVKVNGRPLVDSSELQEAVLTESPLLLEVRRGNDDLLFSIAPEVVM
# T7: HTRA4, P83105
# T7 sequence (P83105 378-476, limits assumed, looked up): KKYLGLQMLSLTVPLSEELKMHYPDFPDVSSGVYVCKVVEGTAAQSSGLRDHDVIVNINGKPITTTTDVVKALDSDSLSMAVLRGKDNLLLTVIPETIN
# T8: MPDZ_5, O75970
# T8 sequence (O75970 695-796, limits assumed, looked up): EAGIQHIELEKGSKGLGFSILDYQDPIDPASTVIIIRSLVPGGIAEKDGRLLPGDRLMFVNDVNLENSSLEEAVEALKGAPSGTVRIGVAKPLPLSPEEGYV
# T9: MPP6, Q9NZW5
# T9 sequence (Q9NZW5 125-219, limits assumed, looked up): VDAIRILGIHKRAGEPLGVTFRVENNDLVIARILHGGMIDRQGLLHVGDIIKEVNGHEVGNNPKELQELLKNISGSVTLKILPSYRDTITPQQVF
# T10: NHERF3_3, Q5T2W1
# T10 sequence (Q5T2W1 238-333, limits assumed, looked up): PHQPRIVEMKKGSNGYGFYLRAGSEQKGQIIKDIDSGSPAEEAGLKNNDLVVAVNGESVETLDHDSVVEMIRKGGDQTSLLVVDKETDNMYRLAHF
# T11: PCLO, Q9Y6V0
# T11 sequence (Q9Y6V0 4491-4600, limits assumed, looked up): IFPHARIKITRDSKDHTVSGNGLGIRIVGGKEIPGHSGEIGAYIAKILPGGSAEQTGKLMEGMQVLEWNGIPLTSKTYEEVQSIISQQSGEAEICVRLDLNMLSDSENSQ
# T12: RHPN1, Q8TCX5
# T12 sequence (Q8TCX5 508-602, limits assumed, looked up): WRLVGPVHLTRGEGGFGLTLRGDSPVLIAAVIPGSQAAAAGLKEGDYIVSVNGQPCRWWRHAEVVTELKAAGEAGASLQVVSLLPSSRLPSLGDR
# T13: TJP3_3, O95049
# T13 sequence (O95049 375-456, limits assumed, looked up): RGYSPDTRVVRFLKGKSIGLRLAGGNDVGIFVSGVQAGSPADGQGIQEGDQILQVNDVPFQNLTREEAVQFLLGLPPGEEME
# Tests used:
# Assay in all cases: holdup assay
# Parameters in all cases: key: below the threshold = too weak to quantify, mostly under pKd 3.1 to 4
# [1] = biological target: T1, APBA1_1, Q02410
# [2] = biological target: T2, ARHGAP21, Q5T5U3
# [3] = biological target: ARHGEF12, Q9NZN5-2
# [4] = biological target: T3, DFNB31_1, Q9P202
# [5] = biological target: DLG1_1, Q12959
# [6] = biological target: T4, DLG3_1, Q92796
# [7] = biological target: T5, DLG3_3, Q92796
# [8] = biological target: GORASP1, Q9BQQ3
# [9] = biological target: GORASP2, Q9H8Y8
# [10] = biological target: T6, HTRA3, P83110
# [11] = biological target: T7, HTRA4, P83105
# [12] = biological target: LIMK2, P53671
# [13] = biological target: LNX1_1, Q8TBB1
# [14] = biological target: LNX1_3, Q8TBB1
# [15] = biological target: MAGI1_1, Q96QZ7
# [16] = biological target: MAGI2_6, Q86UL8
# [17] = biological target: T8, MPDZ_5, O75970
# [18] = biological target: T9, MPP6, Q9NZW5
# [19] = biological target: T10, NHERF3_3, Q5T2W1
# [20] = biological target: T11, PCLO, Q9Y6V0
# [21] = biological target: PDZRN4_1, Q6ZMN7
# [22] = biological target: PTPN3, P26045
# [23] = biological target: T12, RHPN1, Q8TCX5
# [24] = biological target: T13, TJP3_3, O95049
# [25] = plain residues with an end cap or a label only (N-terminal biotin on a linker: ado-ado)
# [26] = plain residues with an end cap or a label only (N-terminal biotin on a linker: (peg)3)
# GORASP1, Q9BQQ3, sequence (Q9BQQ3 1-208): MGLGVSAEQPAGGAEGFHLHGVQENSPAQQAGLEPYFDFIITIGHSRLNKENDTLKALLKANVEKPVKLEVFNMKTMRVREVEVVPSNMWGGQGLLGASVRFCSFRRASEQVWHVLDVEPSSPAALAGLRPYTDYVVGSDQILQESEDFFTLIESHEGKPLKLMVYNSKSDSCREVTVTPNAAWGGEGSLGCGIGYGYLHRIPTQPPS
# MAGI1_1, Q96QZ7, sequence (Q96QZ7 1-106): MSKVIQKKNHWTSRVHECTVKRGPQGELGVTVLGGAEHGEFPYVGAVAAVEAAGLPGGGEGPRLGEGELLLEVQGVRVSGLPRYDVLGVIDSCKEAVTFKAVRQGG
# PDZRN4_1, Q6ZMN7, sequence (Q6ZMN7 213-318): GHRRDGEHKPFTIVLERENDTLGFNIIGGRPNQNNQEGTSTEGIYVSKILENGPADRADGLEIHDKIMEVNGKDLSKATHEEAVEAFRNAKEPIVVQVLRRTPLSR
# LIMK2, P53671, sequence (P53671 143-248): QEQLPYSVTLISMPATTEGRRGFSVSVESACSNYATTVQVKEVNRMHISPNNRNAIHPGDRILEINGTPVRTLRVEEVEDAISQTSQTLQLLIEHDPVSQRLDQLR
# ARHGEF12, Q9NZN5-2, sequence (Q9NZN5 other isoform, or with tags, fused parts or gaps): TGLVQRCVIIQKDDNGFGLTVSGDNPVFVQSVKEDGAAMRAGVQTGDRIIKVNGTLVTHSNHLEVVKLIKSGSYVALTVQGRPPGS
# MAGI2_6, Q86UL8, sequence (Q86UL8 1141-1229): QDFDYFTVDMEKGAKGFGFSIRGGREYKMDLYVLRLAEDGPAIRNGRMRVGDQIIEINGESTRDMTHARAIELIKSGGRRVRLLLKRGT
# LNX1_3, Q8TBB1, sequence (Q8TBB1 500-596): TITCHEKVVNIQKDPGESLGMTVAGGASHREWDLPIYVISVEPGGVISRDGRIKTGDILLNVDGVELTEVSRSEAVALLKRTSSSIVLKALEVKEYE
# PTPN3, P26045, sequence (P26045 505-587): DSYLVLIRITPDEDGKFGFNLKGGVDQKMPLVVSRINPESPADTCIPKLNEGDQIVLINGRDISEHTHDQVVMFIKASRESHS
# LNX1_1, Q8TBB1, sequence (Q8TBB1 261-371): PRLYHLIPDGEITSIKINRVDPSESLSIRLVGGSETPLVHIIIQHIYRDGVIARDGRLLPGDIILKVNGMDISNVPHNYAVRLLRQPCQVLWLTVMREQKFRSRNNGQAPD
binder,measurement,setting,value
"ELSATVTTDC [TRIP6, Q15654]",pKd,[1]; [25],below the threshold
same,pKd,[2]; [25],4.27
same,pKd,[3]; [25],4.44
same,pKd,[4]; [25],3.81
same,pKd,[5]; [25],below the threshold
same,pKd,[6]; [25],below the threshold
same,pKd,[7]; [25],below the threshold
same,pKd,[8]; [25],below the threshold
same,pKd,[9]; [25],below the threshold
same,pKd,[10]; [25],4.04
same,pKd,[11]; [25],below the threshold
same,pKd,[12]; [25],below the threshold
same,pKd,[13]; [25],3.95
same,pKd,[14]; [25],below the threshold
same,pKd,[15]; [25],3.82
same,pKd,[16]; [25],4.24
same,pKd,[17]; [25],below the threshold
same,pKd,[18]; [25],below the threshold
same,pKd,[19]; [25],3.87
same,pKd,[20]; [25],below the threshold
same,pKd,[21]; [25],below the threshold
same,pKd,[22]; [25],4.31
same,pKd,[23]; [25],4.32
same,pKd,[24]; [25],below the threshold
"PPGKHLVTEV [KCNA7, Q96RP8]",pKd,[1]; [25],below the threshold
same,pKd,[2]; [25],below the threshold
same,pKd,[3]; [25],5.22
same,pKd,[4]; [25],below the threshold
same,pKd,[5]; [25],4.76
same,pKd,[6]; [25],4.21
same,pKd,[7]; [25],4.33
same,pKd,[8]; [25],below the threshold
same,pKd,[9]; [25],4.39
same,pKd,[10]; [25],below the threshold
same,pKd,[11]; [25],4.61
same,pKd,[12]; [25],below the threshold
same,pKd,[13]; [25],4.22
same,pKd,[14]; [25],below the threshold
same,pKd,[15]; [25],below the threshold
same,pKd,[16]; [25],4.51
same,pKd,[17]; [25],below the threshold
same,pKd,[18]; [25],below the threshold
same,pKd,[19]; [25],below the threshold
same,pKd,[20]; [25],below the threshold
same,pKd,[21]; [25],below the threshold
same,pKd,[22]; [25],4.74
same,pKd,[23]; [25],4.37
same,pKd,[24]; [25],below the threshold
"QQSMSSADSTQA [SARS-Cov2-N, P0DTC9]",pKd,[1]; [26],below the threshold
same,pKd,[2]; [26],below the threshold
same,pKd,[3]; [26],below the threshold
same,pKd,[4]; [26],below the threshold
same,pKd,[5]; [26],below the threshold
same,pKd,[6]; [26],below the threshold
same,pKd,[7]; [26],below the threshold
same,pKd,[8]; [26],below the threshold
same,pKd,[9]; [26],below the threshold
same,pKd,[10]; [26],below the threshold
same,pKd,[11]; [26],below the threshold
same,pKd,[12]; [26],below the threshold
same,pKd,[13]; [26],below the threshold
same,pKd,[14]; [26],below the threshold
same,pKd,[15]; [26],below the threshold
same,pKd,[16]; [26],below the threshold
same,pKd,[17]; [26],below the threshold
same,pKd,[18]; [26],below the threshold
same,pKd,[19]; [26],below the threshold
same,pKd,[20]; [26],below the threshold
same,pKd,[21]; [26],below the threshold
same,pKd,[22]; [26],below the threshold
same,pKd,[23]; [26],below the threshold
same,pKd,[24]; [26],below the threshold
"ARESQKVSHV [FAM110B, Q8TC76]",pKd,[1]; [25],below the threshold
same,pKd,[2]; [25],3.92
same,pKd,[3]; [25],4.58
same,pKd,[4]; [25],3.62
same,pKd,[5]; [25],3.95
same,pKd,[6]; [25],below the threshold
same,pKd,[7]; [25],below the threshold
same,pKd,[8]; [25],3.8
same,pKd,[9]; [25],4.88
same,pKd,[10]; [25],below the threshold
same,pKd,[11]; [25],4.1
same,pKd,[12]; [25],below the threshold
same,pKd,[13]; [25],3.97
same,pKd,[14]; [25],below the threshold
same,pKd,[15]; [25],below the threshold
same,pKd,[16]; [25],4.43
same,pKd,[17]; [25],below the threshold
same,pKd,[18]; [25],below the threshold
same,pKd,[19]; [25],below the threshold
same,pKd,[20]; [25],below the threshold
same,pKd,[21]; [25],below the threshold
same,pKd,[22]; [25],4.51
same,pKd,[23]; [25],4.72
same,pKd,[24]; [25],below the threshold
"DDASLPVSDV [PLEKHA1, Q9HB21]",pKd,[1]; [25],below the threshold
same,pKd,[2]; [25],3.5
same,pKd,[3]; [25],4.36
same,pKd,[4]; [25],3.75
same,pKd,[5]; [25],below the threshold
same,pKd,[6]; [25],below the threshold
same,pKd,[7]; [25],below the threshold
same,pKd,[8]; [25],below the threshold
same,pKd,[9]; [25],below the threshold
same,pKd,[10]; [25],below the threshold
same,pKd,[11]; [25],below the threshold
same,pKd,[12]; [25],below the threshold
same,pKd,[13]; [25],4.91
same,pKd,[14]; [25],below the threshold
same,pKd,[15]; [25],below the threshold
same,pKd,[16]; [25],5.09
same,pKd,[17]; [25],below the threshold
same,pKd,[18]; [25],below the threshold
same,pKd,[19]; [25],below the threshold
same,pKd,[20]; [25],below the threshold
same,pKd,[21]; [25],below the threshold
same,pKd,[22]; [25],3.58
same,pKd,[23]; [25],4.46
same,pKd,[24]; [25],below the threshold
"SPDRDRESIV [SCN5A, Q14524]",pKd,[1]; [25],below the threshold
same,pKd,[2]; [25],3.91
same,pKd,[3]; [25],below the threshold
same,pKd,[4]; [25],3.58
same,pKd,[5]; [25],4.28
same,pKd,[6]; [25],3.9
same,pKd,[7]; [25],below the threshold
same,pKd,[8]; [25],3.71
same,pKd,[9]; [25],3.88
same,pKd,[10]; [25],below the threshold
same,pKd,[11]; [25],3.9
same,pKd,[12]; [25],below the threshold
same,pKd,[13]; [25],3.88
same,pKd,[14]; [25],below the threshold
same,pKd,[15]; [25],below the threshold
same,pKd,[16]; [25],3.67
same,pKd,[17]; [25],below the threshold
same,pKd,[18]; [25],below the threshold
same,pKd,[19]; [25],below the threshold
same,pKd,[20]; [25],below the threshold
same,pKd,[21]; [25],3.95
same,pKd,[22]; [25],4.78
same,pKd,[23]; [25],4.89
same,pKd,[24]; [25],below the threshold

# From PMC9482650, “Quantitative fragmentomics allow affinity mapping of interactomes” (Nature Communications, 2022)
